Results published in patent publication US20230174648A1 (published 2023).

What was measured:
[1] = biological target: T1, human SIRPα V1, extracellular domain (human, UniProt P78324 31-373); experiment: SPR (BIACORE), antibody captured on chip, monomeric SIRPα ECD as analyte, 1:1 model
T1 construct: also called hSIRPα V1; monomeric human SIRPα
Experimental: (§1) The affinities of these SIRPα antibodies were determined using surface plasmon resonance. The SIRPα antibodies were flowed onto a chip and captured by an anti-human IgG covalently coupled to the surface of the chip. A three-point titration of the extracellular binding domain of hSIRPα was performed per the manufacturer’s recommended protocols.

[2] = biological target: T2, cynomolgus monkey SIRPα, extracellular domain (cynomolgus monkey, UniProt A0A2K5VYQ9 31-372); experiment: SPR (BIACORE), antibody captured on chip, monomeric SIRPα as analyte, 1:1 model
T2 construct: extracellular domain; Monomeric protein in SPR; also called Cyno SIRPα; monomeric cynomolgus monkey SIRPα
Experimental: as §1

[3] = biological target: T3, human SIRPβ1-His monomer protein (human, UniProt O00241 30-371); experiment: BLI (ForteBio Octet), antibody on AMC biosensor, SIRP-His monomer 100/33.3/11.1 nM, 1:1 model, averaged KD
T3 construct: also called SIRP-His; monomeric human SIRPβ1; not shown: His tag

[4] = biological target: T4, human SIRPα V1-His monomer protein (human, UniProt P78324 31-373); experiment: as above
T4 construct: SIRP-His monomer used as analyte in BLI (Octet); also called SIRP-His; monomeric human SIRPα; not shown: His tag

[5] = biological target: T2, cynomolgus monkey SIRPα, extracellular …; experiment: SPR (BIACORE), antibody captured by anti-human IgG, monomeric SIRPα as analyte, 1:1 model
Experimental: as §1

[6] = biological target: T1, human SIRPα V1, extracellular domain; experiment: SPR (BIACORE), antibody captured by anti-human IgG, monomeric SIRPα ECD as analyte, 1:1 model
Experimental: as §1

[7] = biological target: T5, human SIRPα V2, extracellular domain (human, UniProt P78324 31-373); experiment: as above
T5 construct: also called hSIRPα V2
Experimental: as §1

[8] = biological target: T2, cynomolgus monkey SIRPα, extracellular …; experiment: SPR (BIACORE), antibody captured, monomeric SIRPα as analyte

T3 sequence (O00241 30-371 limits assumed): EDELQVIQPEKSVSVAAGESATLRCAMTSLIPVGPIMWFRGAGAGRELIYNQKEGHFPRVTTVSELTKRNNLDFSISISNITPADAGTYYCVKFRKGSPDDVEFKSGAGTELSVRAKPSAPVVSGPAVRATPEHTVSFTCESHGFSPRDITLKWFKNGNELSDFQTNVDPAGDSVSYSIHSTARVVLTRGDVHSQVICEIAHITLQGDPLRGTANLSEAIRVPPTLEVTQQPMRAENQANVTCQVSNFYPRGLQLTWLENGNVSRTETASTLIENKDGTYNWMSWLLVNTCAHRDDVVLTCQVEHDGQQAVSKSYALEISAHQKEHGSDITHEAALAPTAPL

B1: Antibody 6 (antibody, rat IgG2b, V domains shown)
VH: EVQLLESGGGLVQPGGSLRLSCAASGFTLSSYAMSWVRQAPGKGLEWVSISSGSGANTYNADSLKGRFTISRDNSKNTLFLQMNSLRAEDTAVYYCARLRFFDWFDYWGQGALVTVSS
VL: QAVVTQESALTTSPGETVTLTCRSSTGAVTTSNYANWVQEKPDHLFTGLIGGTNNRTPGVPARFSGSLIGDKAALTITGAQTEDEAIYFCALWYSNHWVFGGGTKLTVL
notes: Human variable region with rat IgG2b Fc
[1]
  Kd: 4.1 nM
[2]
  Kd: 56.1 nM
[3]
  Kd: 0.456 nM
[4]
  Kd: 1.21 nM

B2: Antibody 27 (antibody, V domains shown)
VH: EVQLLESGGGLVQPGGSLRLSCAASGFTLSSYAMSWVRQAPGKGLEWVSISSGSGANTYNADSLKGRFTISRDNSKNTLFLQMNSLRAEDTAVYYCARLRFFDWFDYWGQGALVTVSS
VL: QAVVTQESALTTSPGETVTLTCRSSTGAVTTSNYANWVQEKPDHLFTGLIGGTNNRTPGVPARFSGSLIGDKAALTITGAQTEDEAIYFCALWYSNHWVFGGGTKLTVL
[5]
  Kd: 30.6 nM
[6]
  Kd: 2 nM

B3: Antibody 22 (antibody, V domains shown)
VH: EVQLLESGGGLVQPGGSLRLSCAASGFTLSSYAMSWVRQAPGKGLEWVSISSGSGANTYNADSLKGRFTISRDNSKNTLFLQMNSLRAEDTAVYYCARLRFFDWFDYWGQGALVTVSS
VL: QAVVTQESALTTSPGETVTLTCRSSTGAVTTSNYANWVQEKPDHLFTGLIGGTNNRTPGVPARFSGSLIGDKAALTITGAQTEDEAIYFCALWYSNHWVFGGGTKLTVL
notes: Same variable domains as Antibody 6 with human IgG1 Fc
[5]
  Kd: 35.5 nM
[7]
  Kd: 11.5 nM
[6]
  Kd: 2.59 nM

B4: Antibody 2 (antibody, V domains shown)
VH: QVQLVQSGAEVKKPGASVKVSCKASGYTFTGYYIFWMRQAPGQGLEWMGWINPNSGGTDYAQKFQGRVTMTMDTSISTAYMELSRLRSDDTAVYYCAREDCTSISCSFDYWGQGTLVTVSS
VL: not shown
notes: as for B1
[8]
  binding result: no binding
[1]
  Kd: 89.5 nM
[3]
  Kd: 3620 nM
[4]
  Kd: 11 nM

B5: Antibody 5 (antibody, rat IgG2b, V domains shown)
VH: QVQLVESGGGVVQPGRSLRLSCAASGFTFSNYGMHWVRQAPGKGPEWVAVIWYDGSYKYYGDSVKGRFTISRDNSKNTLYLQMNSLRAEDTAVYYCVRESVGYSSGWSFDYWGQGILVTVSS
VL: DIQMTQSPSTLSASVGDRVTITCRASQSISSWLAWYQQKPGKVPKLLIYKASSLKTGVPSRFSGNGSGTEFTLTISSLQPDDFATYYCQQYNSYSWTFGQGTKVEIK
notes: as for B1
[4]
  Kd: 17.3 nM

B6: Antibody 19 (antibody, mouse IgG1, V domains shown)
VH: QVQLQQSGAELVRPGASVTLSCKASGYTFTDYEMHWVKQTPVHGLEWIGAIDPETGGTAYNQKFKGKATLTADKSSSTAYMELRSLTSEDSAVYYCTGITRFAYWGQGTLVTVSA
VL: SIVMTQTPKFLLVSAGDRVTITCKASQSVSNDVAWYQQKPGQSPKLLIYYASNRYTGVPDRFTGSGYGTDFTFTISTVQAEDLAVYFCQQDYSSPWTFGGGTKLEIK
notes: Mouse IgG1 Fc
[3]
  Kd: 75.9 nM
[4]
  Kd: 3.79 nM

B7: Antibody 17 (antibody, mouse IgG2a, V domains shown)
VH: EVQVVESGGGLVKPGGSLKISCAASGFAFSSYDMSWVRQTPEKRLEWVAYISSGGGSIYYAETVKGRFTISRDNAKNTLYLQMSSLKSEDTAMYYCVRHGYHEYFDVWGAGTTVTVSS
VL: DVLMTQTPLSLPVSLGDQASISCRSSQSIVHSNGNTYLEWYLQKPGQSPKLLIYKVSNRFSGVPDRFSGSGSGTDFTLKISRVEAEDLGVYFCFQGSHFPYTFGGGTKLEIK
notes: Mouse IgG2a Fc
[4]
  Kd: 206 nM

B8: Antibody 16 (antibody, mouse IgG2a, V domains shown)
VH: QVQLQQSGAELAKPGASVKMSCKASGYTFTSYWMHWVKQRPGQGLEWIGYIDPSTGYTFHNQKFKDKATLTADKSSTTAYMQLRSLTSEDSAVYYCARRDYGSSFYAMDYWGHGTSITVSS
VL: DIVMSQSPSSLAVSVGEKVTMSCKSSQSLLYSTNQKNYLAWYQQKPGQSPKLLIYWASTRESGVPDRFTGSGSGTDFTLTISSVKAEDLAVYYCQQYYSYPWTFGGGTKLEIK
notes: Mouse IgG2a Fc
[3]
  Kd: 83.9 nM
[4]
  Kd: 1.21 nM
